The data set can be described thus: yeast display, Sf9 membrane polyspecificity reagent, FACS + sequencing; frameworks hold sequencing errors. Put shortly: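 Sorting gates, low and high (top ~1%), were placed on anti-HA fluorescence to track expression and on streptavidin fluorescence to track reagent binding. A clone's polyreactivity label is taken from the gate it came out of. The reagent was 10% biotinylated, detergent-solubilized Sf9 membrane, applied for 1 hour at 4 °C to galactose-induced yeast display cells.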
Turning to “QVQLVESGGGLVQAGGSLRLSCAASGSTFSQYAMGWYRQAPGKERELVAAITTSDGSTNYADSVKGRFTISRDNAKNTVYLQMNSLKPEDTAVYYCNTEYFYYSFGYWGQGTQVTVSS”, the “polyreactivity (PSR sort gate)” value was “low polyreactivity”.

With “QVQLVESGGGLVQAGGSLRLSCAASGRIFRWYAMGWYRQAPGKERELVATITRSGGSTYCADSVKGRFTISRDNAKNTVYLQMNSLKPEDTAVYYCAARWRLTPSWLPYVQSSAGYDYWGQGTQVTVSS”, the “polyreactivity (PSR sort gate)” value was “high polyreactivity”.

On to “QVQHVESGGGLVQAGGSLRLSCAASGFIFLYYAMGWYRQAHGQERELVAAISRSGGRTYYADSVKGRFTISRDTAKNTVYLQMNSLKPEDTAVYYCAADRLGSISGYDYWGQGTQVTVSS”, for which the “polyreactivity (PSR sort gate)” value is “high polyreactivity”.

Regarding “QVQLVESGGGLVQAGGSLRLSCAASGYIFYDYVMGWYRQAPGKEREVVAAISSGGNTNYADSVKGRFTISRDNAKNTVYLQMNSLKPEDTAVYYCAADRWGARRKQYHENGYWGQGTQVTVSS”, the “polyreactivity (PSR sort gate)” value is on record as “high polyreactivity”.

As for “QVQLVESGGGLVQAGGSLRLSCAASGIIFTDTAMGGYTQPPGKVRELVATISWSTDNTYYADSVKGRFTISRDNAKNTVYLQMNSLKPEDTAVYYCAAEEFYAYWYQSDYWGQGTQVTVSS”, the “polyreactivity (PSR sort gate)” value is recorded as “low polyreactivity”.

For “QVQLVESGGGLVQAGGSLRLSCAASGRTFGFYAMGWYRQAPGKERELVAAIRGSIGNTYYADSVKGRFTISRDNAKNTVYLQMNSLKPEDTAVYYCAKAIRYPSAKFYWGQGTQVTVSS”, the “polyreactivity (PSR sort gate)” value is “high polyreactivity”.

On to “QVQLVESGGGLVQAGGSLRVSCAASGSNFGGYAMGWYRQAPGKERELVAAISSRGIDTTYADSVKVRFTISRDNAKNTVYLQMYSLKPDDTAVYYCAEFVSDATVGPSNGLDYWGQGTQVTVSS”, for which the “polyreactivity (PSR sort gate)” value was “low polyreactivity”.

As for “QVQLVESGGGLVQAGGSLRLSCAASGLIFYGNAMGWYREAPGKERELVAAISRRGGRTYYADSVKGRFTISRDNAKKSVYLQMHSLKPEDTAVYYCAAGVPKNGQAGYDYWGQGTQVTVSS”, the “polyreactivity (PSR sort gate)” value is “high polyreactivity”.

For “QVQLVESGGGLVQAGGSLRLSCAASGRIFWNYAMGWYREAPGKERELVASINWSGGSTYSADSVKGRFTISRDNAKNTVYLQMNSLKPEDTAVYYCNQDGRVYLDHDYWGQGTQVTVSS”, the “polyreactivity (PSR sort gate)” value is reported as “low polyreactivity”.

With “QVQLVESGGGLVQAGGSLRLSCASSGLTSYSAMGWYRQAPGKERELGAAIDGSDGNTYYADSVKGRFTISRDNAMNTVYLQMKSLKPEDTAVYYCNAETVRYWWSWENDYWGQGTQVTVSS”, the “polyreactivity (PSR sort gate)” value is reported as “high polyreactivity”.

On to “QVQLVESRGGLVQAGGSLRLSCAASGRIFRYNAMGWDRQAPGKERELVAAITRSGGRTYYADSVKGRFTISRDNAKNTVYLQMNSLKPEDTAVYYCAADKYPSSPYVGDVDYWGQGTQVTVSS”, for which the “polyreactivity (PSR sort gate)” value is “high polyreactivity”.

Take “QVQLVESGGGLVQAGGSLRLSCAASGRTFRAYAMGWYRQAPGKERELVARISWSGGNTYYADSVKGRFTISRDNAKNTVYLQMNSLKPEDTAVYYCAKTYYPYPAQIYTGYSWGQGTQVTVSS”: the “polyreactivity (PSR sort gate)” value is recorded as “low polyreactivity”.

“QVQLVESGGGLVQAGGSLRLICSASGSTFNLYAMGWYRQAPWTERELVAAISYRGGTTYYADSVKGRFTISRDNAKHTVYLQMNSLKREDTAVYYCSAGWRPRSLRDASKYDFWGQGTQVTVSS”: the “polyreactivity (PSR sort gate)” value is on record as “low polyreactivity”.

Regarding “EVQLVESGGGLVQPGGILRVSCAASGYIYSRYRKGWYRQAPGKRREFVAAISGGSSTNYADSVKGRFTISRDNSKKTVYLQMNSLRAEDTAVYYCADSKIDSDPRVYWGQGYQVTVSS”, the “polyreactivity (PSR sort gate)” value was “low polyreactivity”.

For the sequence “QLQLVESGGGLVQAGGSLRLSCAASGSTISGYAMGWYRQAPGKARELVARINSGGGRTYYADSVKGRFTISRDNAKNTVYLQMNSLKREDTEVYYFAAYSKPFPYVSTIRYYYWGQGTQVTVSS”, the “polyreactivity (PSR sort gate)” value is listed as “high polyreactivity”.

As to “QVQLVESGGCLVQAGGSLRLSCASSGRTFSWNAMGCYRQAPGKEREFVAAISNSGGSTYYADSVNGRFTISRDNAKNTVYLQMNSLKPEDTAVYYCAVYRYYGFSLWYDYWGQCTQVTVSS”, the “polyreactivity (PSR sort gate)” value is on record as “low polyreactivity”.

For the origin of these results see the nanobody polyreactivity screen of Harvey et al. (2022).
